According to US20160145352A1 (INSTITUT NATIONAL DE LA RECHERCHE AGRONOMIQUE, published 2016):

How the values were obtained:
[1] = target: H4 histone (in total histones acid-extracted from HT1080 human cells) (human, UniProt P62805 2-103); test: immunoblot on acid-extracted total histones of HT1080 cells, overlaid on Ponceau red staining
[2] = target: H2B histone in the monomeric state (HPLC-purified fraction) (human, UniProt P62807 2-126); test: immunoblot on HPLC-purified histones, VHH-HA plus anti-HA, HRP/ECL
Description: (§1) After blocking in TBS-T (Tris buffered saline, 0.1% Tween® 20), 5% skimmed milk, the membrane is incubated for 1 h in a dilution of the VHH-HA polypeptide (5 μg/ml) combined with an anti-HA antibody (HA-11 mouse monoclonal 16B12 from Covance) diluted to 1 μg/ml in TBS-T, 5% skimmed milk. The membranes are also probed with the anti-H2AX (Epitomics clone EPR895) and anti-γH2AX (Millipore) monoclonal antibodies. After 3 washes in TBS-T, the blot is incubated with the anti-mouse secondary antibody coupled to horseradish peroxidase (HRP) (Cell Signaling), then washed 3 times for 10 min. Visualization is carried out with an ECL substrate (Enhanced Chemiluminescence West Dura Thermo scientific). The chemiluminescence photon emission is captured by a camera (G-Box Syngene).
(§2) To this effect, the proteins of the fractions thus obtained, in particular of the fractions containing H2A, H2B and H3, and also a mixture of the H2A and H2B fractions, are separated by electrophoresis in a denaturing polyacrylamide gel (NuPage® Bis Tris, Life Technologies), then transferred onto a nitrocellulose membrane. The visualization is carried out according to the protocol described above.

[3] = target: H3 histone (HPLC-purified fraction) (human, UniProt P68431 2-136); test: as above
Description: as §1, §2

Measured: binding result

B1: S2-HA polypeptide (VHH S2 fused to the HA tag) (VHH)
VHH: QVQLQASGGGLVQAGDSLRLSCAAAGRSFSSYAMGWFRQAPGKEREFVAAISRSRGVTYADSVKGRFTISKDNVKNMAYLQMNSLKPEDTGVYYCAATSSGSTRQLSTGRSNYWGQGTQVTVS
notes: Secreted into E. coli culture medium from pHEN4-VHH; it calls it the VHH domain; also called VHH-HA; not shown: HA tag from the pHEN4 vector
no binding (tested: 5 µg/ml): [1] | [2] | [3]

B2: C76-HA polypeptide (VHH C76 fused to the HA tag) (VHH)
VHH: QVQLQASGGGLVQAGGSLRLSCAVSGGTLSSYTMGWFRQAPGKEREFVSALSRVGGKSDYADSVKGRFTISRNAKNTVYLQMNSLKPEDTAVYYCAAGGYSRRWSAYNYWGQGTQVTVS
notes: Secreted into E. coli culture medium from pHEN4-VHH; also called C75-HA (as printed in Experiment 2); VHH-HA; not shown: HA tag from the pHEN4 vector
no binding (tested: 5 µg/ml): [1] | [2] | [3]

B3: C25-HA polypeptide (VHH C25 fused to the HA tag) (VHH)
VHH: QVQLQASGGGLVQAGESLTLSCDASGRTFSIGAMGWFRQAPGKEREFLAAINWNGGYTSYADVASGRFTISRNAKNTVYLQMNSLQPEDTAVYYCAAKYGGSARSRTYDYWGQGTQVTVS
notes: Secreted into E. coli culture medium from pHEN4-VHH; also called VHH-HA; not shown: HA tag from the pHEN4 vector
no binding (tested: 5 µg/ml): [1] | [2] | [3]
